Results from patent publication US20110124071A1, “METHODS AND COMPOSITIONS FOR PRODUCING HYDROCARBONS” (priority 2009, published 2011).

Columns and labels:
E. coli MG1655 = assay: Coexpression of putative decarbonylase with S. elongatus PCC7942 orf1594 in E. coli, GC-MS of extracts; format: cell-based; conditions: coexpressed with S. elongatus PCC7942 orf1594 in E. coli MG1655, M9 minimal media
Procedure: After a 1 μl splitless injection (inlet temperature held at 300° C.) onto the GC/MS column, the oven was held at 100° C. for 3 mins. The temperature was ramped up to 320° C. at a rate of 20° C./min. The oven was held at 320° C. for an additional 5 min. The flow rate of the carrier gas helium was 1.3 ml/min. The MS quadrapole scanned from 50 to 550 m/z. Retention times and fragmentation patterns of product peaks were compared with authentic references to confirm peak identity.
The genomic DNA encoding Synechococcus elongatus PCC7942 orf1594 (YP—400611; putative aldehyde-generating enzyme) (SEQ ID NO: 65) was amplified and cloned into the NcoI and EcoRI sites of vector OP-80 (pCL1920 derivative) under the control of the Ptrc promoter. The resulting construct (“OP80-PCC7942—1594”) was transformed into E. coli MG1655 and the cells were grown at 37° C. in M9 minimal media with 1% (w/v) glucose as carbon source and supplemented with 100 μg/ml spectinomycin. When the culture reached OD600 of 0.8-1.0, it was induced with 1 mM IPTG and cells were grown for an additional 18-20 h at 37° C. Cells from 0.5 ml of culture were extracted with 0.5 ml of ethyl acetate. After sonication for 60 min, the sample was centrifuged at 15,000 rpm for 5 min. The solvent layer was analyzed by GC-MS as described in Example 1.
The genomic DNA encoding Synechococcus elongatus PCC7942 orf1593 (YP—400610; putative decarbonylase) (SEQ ID NO: 1) was amplified and cloned into the NdeI and XhoI sites of vector OP-183 (pACYC derivative) under the control of the Ptrc promoter. The resulting construct was cotransformed with OP80-PCC7942—1594 into E. coli MG1655 and the cells were grown at 37° C. in M9 minimal media supplemented with 100 μg/ml spectinomycin and 100 μg/ml carbenicillin. The cells were cultured and extracted as in Example 3 and analyzed by GC-MS as described in Example 1. […]

[1] = test system: E. coli MG1655 ΔfadD lacZ::Ptrc-′tesA; assay: Heterologous expression in a fatty aldehyde-producing E. coli strain with MSMEG—5739, GC-MS; format: cell-based; conditions: decarbonylase coexpressed with carboxylic acid reductase MSMEG—5739
[2] = In vitro decarbonylation enzyme assay with purified Npun02004178 protein, GC/MS; format: biochemical; conditions: 30 μM protein, 200 μM octadecanal, spinach ferredoxin, ferredoxin reductase, 1 mM NADPH, 37° C., 2 h
Procedure: The genomic DNA encoding N. punctiforme PCC73102 Npun02004178 (SEQ ID NO: 5) was cloned into the NdeI and XhoI sites of vector pET-15b under the control of the T7 promoter. The resulting Npun02004178 protein contained an N-terminal His-tag. An E. coli BL21 strain (DE3) (Invitrogen) was transformed with the plasmid by routine chemical transformation techniques. Protein expression was carried out by first inoculating a colony of the E. coli strain in 5 ml of LB media supplemented with 100 mg/L of carbenicillin and shaken overnight at 37° C. to produce a starter culture. This starter cultures was used to inoculate 0.5 L of LB media supplemented with 100 mg/L of carbenecillin. […] Protein concentration was determined using the Bradford assay (Biorad). […]
To test Npun02004178 protein for decarbonylation activity, the following enzyme assays were set-up. […] Samples were analyzed by GC/MS using the following parameters: run time: 13.13 min; column: HP-5-MS Part No. 19091S-433E (length of 30 meters; I.D.: 0.25 mm narrowbore; film: 0.25ìM); inject: 1ìl Agilent 6850 inlet; inlet: 300 C splitless; carrier gas: helium; flow: 1.3 ml/min; oven temp: 75° C. hold 5 min, 320 at 40° C./min, 320 hold 2 min; det: Agilent 5975B VL MSD; det. temp: 330° C.; scan: 50-550 M/Z. Heptadecane from Sigma was used as an authentic reference for determining compound retention time and fragmentation pattern.

B1: Npun02004178: Nostoc punctiforme PCC73102 putative decarbonylase (SEQ ID NO: 5) (protein)
chain: MQQLTDQSKELDFKSETYKDAYSRINAIVIEGEQEAHENYITLAQLLPESHDELIRLSKMESRHKKGFEACGRNLAVTPDLQFAKEFFSGLHQNFQTAAAEGKVVTCLLIQSLIIECFAIAAYNIYIPVADDFARKITEGVVKEEYSHLNFGEVWLKEHFAESKAELELANRQNLPIVWKMLNQVEGDAHTMAMEKDALVEDFMIQYGEALSNIGFSTRDIMRLSAYGLIGA
modifications: Nostoc punctiforme
E. coli MG1655
  fatty aldehyde decarbonylase activity (alkane/alkene production): active fatty aldehyde decarbonylase
[1]
  conversion of fatty aldehydes provided by MSMEG—5739 to alkanes: produced tridecane, pentadecene and pentadecane
[2]
  in-vitro conversion of octadecanal to heptadecane: in-vitro conversion of octadecanal to heptadecane was observed
